Common to all, as to assay type: binding
One assay concerns the target T1, TIP-1 (GST-TIP-1) (Homo sapiens, UniProt O14907, I73S).
T1 construct: made in house; host or cells: E. coli DH5alpha
T1 sequence (O14907 3-123 I73S): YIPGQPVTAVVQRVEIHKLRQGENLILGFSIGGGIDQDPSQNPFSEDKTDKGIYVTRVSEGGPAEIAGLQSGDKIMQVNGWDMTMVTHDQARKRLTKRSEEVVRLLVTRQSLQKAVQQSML
The experiment in a line: G assay with unlabeled 8 amino acid competitor peptide (Example 4, FIGS. 2B, 2C). The procedure: FIGS. 2A, 2B and 2C show binding and competition assays with the PDZ ligands of CD95 (Fas) and Tax for the PDZ domain of TIP-1.
Upon infection, the higher affinity of Tax could preferentially bind TIP-1 protein available in the cell, removing the TIP-1 bound to CD95 (Fas) and thereby rendering the cell less able to undergo apoptosis. In order to test this, competition experiments between Tax and CD95 for TIP-1 binding were performed using the ‘G Assay’, but adding additional unlabeled competitor peptide at step 9 of the ‘G Assay’ presented in EXAMPLE 3 section D.
FIGS. 2B and 2C show the results of these experiments. The graphs show the amount of binding of the biotinylated 20 amino acid peptide in the presence of increasing concentrations of unlabeled 8 amino acid competitor.

The target of another assay is T2, DLG-1 (Homo sapiens, UniProt Q12959).
T2 construct: protein spans from amino terminal end of first PDZ domain to carboxy-terminal end of third PDZ domain in frame with GST in vector; made in house; host or cells: E. coli DH5alpha
The experiment in a line: G assay competition of short unlabeled peptides with biotinylated 20-mers (Example 6, TABLE 6). Conditions: competitor 50 uM; for % binding: 100 = no competitor. From the text:
(§1) The potential for unlabeled 8-mers and 3-mers to compete for binding with biotinylated 20-mers to PDZ domains was examined. Interactions between a PDZ domain and two or more biotinylated peptides mimicking PDZ ligands identified through the ‘G Assay’ were used as model interactions. Short, 3 or 8 amino acid, unlabeled peptides were synthesized by standard techniques and used at variable concentrations with a set concentration of biotinylated 20-mer. Ability of both the 3-mer and 8-mer to inhibit longer peptide binding was observed, making PDZ:PL interactions an attractive target for design of small molecule or peptide therapeutics.
(§2) Peptides representing the C-terminal 3, 8 or 20 amino acids of a PDZ ligand were synthesized by standard FMOC chemistry and biotinylated if not used as an unlabeled competitor. Peptides three amino acids in length were acetylated to more properly mimic the peptide bond without introducing an amino-terminal charged group. Peptides were purified by reverse phase high performance liquid chromatography (HPLC) using a Vydac 218TP C18 Reversed Phase column having the dimensions of 10*25 mm, 5 um. Approximately 40 mg of peptide was dissolved in 2.0 ml of and aqueous solution of 49.9% acetonitrile and 0.1% Tri-Fluoro acetic acid (TFA). This solution was then injected into the HPLC machine through a […] syringe filter (Millipore). Buffers used to get a good separation are (A) distilled water with 0.1% TFA and (B) 0.1% TFA with Acetonitrile.
(§3) The G Assay was performed as described in EXAMPLE 3 with the exception that when a short competitor was used, 30 ul of competitor peptide (at twice the final concentration) was mixed with 30 ul biotinylated 20-mer (at twice the final concentration) and then added to the well.
(§4) PSD-95 and DLG-1 were incubated in the wells at 5 ug/ml as described in the G Assay protocol. Biotinylated 20-mer peptides used were 20 uM CLASP-2, 20 uM CD46, 10 uM CD95, and 10 uM KV1.3 (find sequences of peptides in TABLE 8). Competitors (unlabeled, short peptides) tested against each of the biotinylated peptides were 50 uM 8-mer of CD95, 100 uM 8-mer of CD46, 50 uM 8-mer of CLASP-2, and 1 mM and 500 uM acetylated 3-mer of CLASP-2. To deduce sequences, refer to TABLE 8. All absorbances were read at 450 nm after stopping TMB detection reaction at 30 min. Results were normalized in each group by dividing its A450 by the A450 of the PDZ/peptide binding in the absence of competitor and converting to percentage by multiplying by 100.

The target of the next assay is T3, PSD-95 (Homo sapiens, UniProt P78352).
T3 construct: protein spans from amino terminal end of first PDZ domain to carboxy-terminal end of third PDZ domain in frame with GST in vector; made in house; host or cells: E. coli DH5alpha
The description is as above. Conditions: competitor 50 uM, 100 = no competitor.
Text: as §1, §2, §3, §4

Assay [1] has as its target T4, PDZ protein (GST-PDZ fusion) (Homo sapiens, UniProt Q9NR12).
T4 construct: made in house; host or cells: E. coli (DH5alpha, BL21 or JM109)
The assay can be described thus: G' assay (10 uM PL peptide), results of TABLE 7 and TABLE 12. The conditions noted are these: PDZ ENIGMA, PDZ Domain 1. In outline: (§5)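 Biotin-PL peptide (N-term label), 10 uM vs GST-PDZ; protein 5 ug/ml by default. A450 nm binned: 1 = 0-1, 2 = 1-2, 3 = 2-3, 4 = 3-4, 5 = >4 on >2 repeats, 0 = no binding.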

Assay [2] concerns the target T5, PDZ protein (GST-PDZ fusion) (Homo sapiens, UniProt Q13796).
T5 construct: made in house; host or cells: E. coli (DH5alpha, BL21 or JM109)
The description is as above. Conditions: PDZ hAPXL, PDZ Domain 1. In a few lines:
as §5

Assay [3] concerns PDZ protein (GST-PDZ fusion). Described as above. In outline: as §5
The target in assay [4] is T6, PDZ protein (GST-PDZ fusion) (Homo sapiens, UniProt Q12923).
T6 construct: made in house; host or cells: E. coli (DH5alpha, BL21 or JM109)
The description is as above. Conditions: PDZ PTPL-1, PDZ Domain 4. In a few lines:
as §5

In assay [5] the target is T7, PDZ protein (GST-PDZ fusion) (Homo sapiens, UniProt Q02410).
T7 construct: made in house; host or cells: E. coli (DH5alpha, BL21 or JM109)
T7 sequence (Q02410 1-837): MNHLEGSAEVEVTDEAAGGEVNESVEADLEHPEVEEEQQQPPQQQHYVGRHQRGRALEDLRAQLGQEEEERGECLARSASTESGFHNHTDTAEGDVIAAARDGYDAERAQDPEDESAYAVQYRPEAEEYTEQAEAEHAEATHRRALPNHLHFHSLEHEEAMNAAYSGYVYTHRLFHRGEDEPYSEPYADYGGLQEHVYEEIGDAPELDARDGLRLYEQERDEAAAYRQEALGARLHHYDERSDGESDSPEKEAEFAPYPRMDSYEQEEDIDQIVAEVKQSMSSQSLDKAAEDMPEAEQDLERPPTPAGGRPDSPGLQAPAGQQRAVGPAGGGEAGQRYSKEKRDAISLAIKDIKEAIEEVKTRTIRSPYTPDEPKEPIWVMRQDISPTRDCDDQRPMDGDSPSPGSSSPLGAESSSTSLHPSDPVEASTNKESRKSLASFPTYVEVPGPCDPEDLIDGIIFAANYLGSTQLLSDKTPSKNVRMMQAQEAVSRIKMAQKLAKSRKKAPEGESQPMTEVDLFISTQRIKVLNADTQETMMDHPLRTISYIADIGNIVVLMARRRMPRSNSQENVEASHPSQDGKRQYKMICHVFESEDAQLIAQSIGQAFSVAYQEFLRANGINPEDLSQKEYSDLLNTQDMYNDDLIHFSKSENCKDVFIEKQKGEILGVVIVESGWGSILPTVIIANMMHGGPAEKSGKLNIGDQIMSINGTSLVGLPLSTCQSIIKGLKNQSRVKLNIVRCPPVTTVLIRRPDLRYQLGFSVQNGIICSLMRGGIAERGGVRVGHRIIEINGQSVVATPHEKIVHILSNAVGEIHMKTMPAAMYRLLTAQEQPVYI
Described as above. In outline: as §5

The target in assay [6] is T8, PDZ protein (GST-PDZ fusion) (Homo sapiens, UniProt O75970).
T8 construct: made in house; host or cells: E. coli (DH5alpha, BL21 or JM109)
The assay is described as above. The conditions noted are these: PDZ MUPP-1, PDZ Domain 10. In outline:
as §5

In assay [7] the target is T9, PDZ protein (GST-PDZ fusion) (Homo sapiens, UniProt Q99767).
T9 construct: made in house; host or cells: E. coli (DH5alpha, BL21 or JM109)
T9 sequence (Q99767 1-749): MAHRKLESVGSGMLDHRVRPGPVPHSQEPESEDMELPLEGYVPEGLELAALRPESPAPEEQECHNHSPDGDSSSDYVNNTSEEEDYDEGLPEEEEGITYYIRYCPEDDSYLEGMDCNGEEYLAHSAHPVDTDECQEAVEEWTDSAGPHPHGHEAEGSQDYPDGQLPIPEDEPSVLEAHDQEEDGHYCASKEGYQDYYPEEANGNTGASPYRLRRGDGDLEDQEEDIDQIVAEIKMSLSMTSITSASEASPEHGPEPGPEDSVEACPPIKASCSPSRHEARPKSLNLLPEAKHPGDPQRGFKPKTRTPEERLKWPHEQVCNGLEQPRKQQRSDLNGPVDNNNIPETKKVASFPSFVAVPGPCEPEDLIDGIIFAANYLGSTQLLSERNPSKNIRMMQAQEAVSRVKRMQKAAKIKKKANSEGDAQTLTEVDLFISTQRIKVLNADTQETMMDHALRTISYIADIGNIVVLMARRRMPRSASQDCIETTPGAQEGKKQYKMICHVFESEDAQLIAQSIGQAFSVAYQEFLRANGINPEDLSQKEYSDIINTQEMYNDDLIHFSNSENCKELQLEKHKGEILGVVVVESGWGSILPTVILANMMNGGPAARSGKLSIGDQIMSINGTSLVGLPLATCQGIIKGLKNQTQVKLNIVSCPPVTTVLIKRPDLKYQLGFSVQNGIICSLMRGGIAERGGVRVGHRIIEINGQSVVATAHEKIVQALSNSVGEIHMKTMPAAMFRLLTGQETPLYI
The assay is described as above. The conditions noted are these: PDZ X11-beta, PDZ Domain 2. In a few lines: as §5

Assay [8] concerns the target T10, PDZ protein (GST-PDZ fusion) (Homo sapiens, UniProt Q6P0Q8).
T10 construct: made in house; host or cells: E. coli (DH5alpha, BL21 or JM109)
The description is as above. In a few lines: as §5

In assay [9] the target is T11, PDZ protein (GST-PDZ fusion) (Homo sapiens, UniProt P55196).
T11 construct: made in house; host or cells: E. coli (DH5alpha, BL21 or JM109)
The description is as above. The conditions noted are these: PDZ AF6, PDZ Domain 1. In outline:
as §5

Assay [10] has as its target T12, PDZ protein (GST-PDZ fusion) (Homo sapiens, UniProt P50479).
T12 construct: made in house; host or cells: E. coli (DH5alpha, BL21 or JM109)
T12 sequence (P50479 1-330): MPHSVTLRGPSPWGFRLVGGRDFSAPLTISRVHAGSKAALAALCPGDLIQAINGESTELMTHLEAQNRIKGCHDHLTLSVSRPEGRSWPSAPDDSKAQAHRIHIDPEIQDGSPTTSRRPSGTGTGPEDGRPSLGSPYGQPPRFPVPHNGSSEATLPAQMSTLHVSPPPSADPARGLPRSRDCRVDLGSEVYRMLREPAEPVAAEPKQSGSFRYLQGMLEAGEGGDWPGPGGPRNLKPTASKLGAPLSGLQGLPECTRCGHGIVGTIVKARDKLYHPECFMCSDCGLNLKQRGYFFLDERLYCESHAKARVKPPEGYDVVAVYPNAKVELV
The description is as above. Conditions: PDZ LIM RIL, PDZ Domain 1. In a few lines: as §5

The mark [11] stands for this setting: biotinylated 20-mer CLASP-2 20 uM.
The mark [12] stands for this setting: biotinylated 20-mer KV1.3 10 uM.

Ends that are not written are not given here. * marks the point of attachment. Biotin = O=C1N[C@H]2[C@H](CS[C@H]2CCCCC(=O)*)N1

T5 sequence (Q13796 whole entry, the tested form may be a part): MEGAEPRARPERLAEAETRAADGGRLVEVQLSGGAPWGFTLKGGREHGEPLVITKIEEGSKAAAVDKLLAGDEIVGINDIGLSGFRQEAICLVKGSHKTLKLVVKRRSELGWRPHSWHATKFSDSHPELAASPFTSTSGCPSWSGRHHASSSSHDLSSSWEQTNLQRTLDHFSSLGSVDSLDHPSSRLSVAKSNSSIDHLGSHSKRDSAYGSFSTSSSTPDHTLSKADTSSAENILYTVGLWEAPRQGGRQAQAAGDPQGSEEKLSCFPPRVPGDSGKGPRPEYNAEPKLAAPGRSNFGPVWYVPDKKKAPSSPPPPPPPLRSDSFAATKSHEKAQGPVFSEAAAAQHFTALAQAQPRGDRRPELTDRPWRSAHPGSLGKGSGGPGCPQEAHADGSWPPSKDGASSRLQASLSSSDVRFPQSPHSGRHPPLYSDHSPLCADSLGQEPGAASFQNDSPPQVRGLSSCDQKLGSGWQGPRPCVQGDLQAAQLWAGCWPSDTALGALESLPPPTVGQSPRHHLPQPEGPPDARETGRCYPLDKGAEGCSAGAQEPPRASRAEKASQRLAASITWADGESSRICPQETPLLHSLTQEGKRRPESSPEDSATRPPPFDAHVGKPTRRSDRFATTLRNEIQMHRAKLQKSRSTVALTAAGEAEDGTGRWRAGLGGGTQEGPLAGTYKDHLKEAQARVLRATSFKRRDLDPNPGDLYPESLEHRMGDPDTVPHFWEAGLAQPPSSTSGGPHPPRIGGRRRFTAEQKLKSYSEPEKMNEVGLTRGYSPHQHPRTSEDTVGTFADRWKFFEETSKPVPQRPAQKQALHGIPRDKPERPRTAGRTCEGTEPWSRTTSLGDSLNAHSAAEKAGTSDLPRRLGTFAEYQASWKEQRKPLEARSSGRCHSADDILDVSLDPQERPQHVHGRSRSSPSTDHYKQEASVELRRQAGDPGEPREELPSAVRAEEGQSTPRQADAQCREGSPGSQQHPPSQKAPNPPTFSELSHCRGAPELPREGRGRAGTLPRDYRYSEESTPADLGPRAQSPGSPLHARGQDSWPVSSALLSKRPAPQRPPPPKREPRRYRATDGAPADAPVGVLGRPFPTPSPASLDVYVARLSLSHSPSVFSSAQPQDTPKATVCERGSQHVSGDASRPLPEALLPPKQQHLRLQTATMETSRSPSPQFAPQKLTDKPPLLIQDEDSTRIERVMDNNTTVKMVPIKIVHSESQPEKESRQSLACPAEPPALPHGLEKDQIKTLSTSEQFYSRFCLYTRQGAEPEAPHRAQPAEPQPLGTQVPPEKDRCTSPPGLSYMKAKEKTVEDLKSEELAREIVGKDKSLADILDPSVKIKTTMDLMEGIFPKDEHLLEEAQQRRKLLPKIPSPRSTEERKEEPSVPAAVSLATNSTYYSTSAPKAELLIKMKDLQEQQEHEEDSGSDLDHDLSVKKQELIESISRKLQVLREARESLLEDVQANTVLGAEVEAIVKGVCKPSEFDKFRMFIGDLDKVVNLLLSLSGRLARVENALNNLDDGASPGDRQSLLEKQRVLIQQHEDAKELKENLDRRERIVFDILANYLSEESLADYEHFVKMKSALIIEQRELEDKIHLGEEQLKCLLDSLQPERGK
T3 sequence (P78352 58-398 limits assumed): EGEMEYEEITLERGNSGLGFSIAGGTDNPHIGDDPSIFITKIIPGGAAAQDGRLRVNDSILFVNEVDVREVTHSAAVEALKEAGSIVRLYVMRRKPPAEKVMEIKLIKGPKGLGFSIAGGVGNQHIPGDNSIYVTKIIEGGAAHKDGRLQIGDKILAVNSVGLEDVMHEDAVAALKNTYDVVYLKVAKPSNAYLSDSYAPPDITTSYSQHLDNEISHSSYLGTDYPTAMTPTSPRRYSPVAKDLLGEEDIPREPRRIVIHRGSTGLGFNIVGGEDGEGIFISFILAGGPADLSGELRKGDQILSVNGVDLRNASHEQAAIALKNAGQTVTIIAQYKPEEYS
T2 sequence (Q12959 224-546 limits assumed): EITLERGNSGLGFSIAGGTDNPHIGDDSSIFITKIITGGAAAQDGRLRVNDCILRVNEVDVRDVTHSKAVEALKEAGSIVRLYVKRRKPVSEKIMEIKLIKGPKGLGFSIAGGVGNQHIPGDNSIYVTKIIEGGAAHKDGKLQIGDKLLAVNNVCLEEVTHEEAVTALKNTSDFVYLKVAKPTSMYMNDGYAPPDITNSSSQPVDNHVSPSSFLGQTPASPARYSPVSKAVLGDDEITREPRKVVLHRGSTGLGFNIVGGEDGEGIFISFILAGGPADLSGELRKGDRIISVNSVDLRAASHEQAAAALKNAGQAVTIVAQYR
T10 sequence (Q6P0Q8 whole entry, the tested form may be a part): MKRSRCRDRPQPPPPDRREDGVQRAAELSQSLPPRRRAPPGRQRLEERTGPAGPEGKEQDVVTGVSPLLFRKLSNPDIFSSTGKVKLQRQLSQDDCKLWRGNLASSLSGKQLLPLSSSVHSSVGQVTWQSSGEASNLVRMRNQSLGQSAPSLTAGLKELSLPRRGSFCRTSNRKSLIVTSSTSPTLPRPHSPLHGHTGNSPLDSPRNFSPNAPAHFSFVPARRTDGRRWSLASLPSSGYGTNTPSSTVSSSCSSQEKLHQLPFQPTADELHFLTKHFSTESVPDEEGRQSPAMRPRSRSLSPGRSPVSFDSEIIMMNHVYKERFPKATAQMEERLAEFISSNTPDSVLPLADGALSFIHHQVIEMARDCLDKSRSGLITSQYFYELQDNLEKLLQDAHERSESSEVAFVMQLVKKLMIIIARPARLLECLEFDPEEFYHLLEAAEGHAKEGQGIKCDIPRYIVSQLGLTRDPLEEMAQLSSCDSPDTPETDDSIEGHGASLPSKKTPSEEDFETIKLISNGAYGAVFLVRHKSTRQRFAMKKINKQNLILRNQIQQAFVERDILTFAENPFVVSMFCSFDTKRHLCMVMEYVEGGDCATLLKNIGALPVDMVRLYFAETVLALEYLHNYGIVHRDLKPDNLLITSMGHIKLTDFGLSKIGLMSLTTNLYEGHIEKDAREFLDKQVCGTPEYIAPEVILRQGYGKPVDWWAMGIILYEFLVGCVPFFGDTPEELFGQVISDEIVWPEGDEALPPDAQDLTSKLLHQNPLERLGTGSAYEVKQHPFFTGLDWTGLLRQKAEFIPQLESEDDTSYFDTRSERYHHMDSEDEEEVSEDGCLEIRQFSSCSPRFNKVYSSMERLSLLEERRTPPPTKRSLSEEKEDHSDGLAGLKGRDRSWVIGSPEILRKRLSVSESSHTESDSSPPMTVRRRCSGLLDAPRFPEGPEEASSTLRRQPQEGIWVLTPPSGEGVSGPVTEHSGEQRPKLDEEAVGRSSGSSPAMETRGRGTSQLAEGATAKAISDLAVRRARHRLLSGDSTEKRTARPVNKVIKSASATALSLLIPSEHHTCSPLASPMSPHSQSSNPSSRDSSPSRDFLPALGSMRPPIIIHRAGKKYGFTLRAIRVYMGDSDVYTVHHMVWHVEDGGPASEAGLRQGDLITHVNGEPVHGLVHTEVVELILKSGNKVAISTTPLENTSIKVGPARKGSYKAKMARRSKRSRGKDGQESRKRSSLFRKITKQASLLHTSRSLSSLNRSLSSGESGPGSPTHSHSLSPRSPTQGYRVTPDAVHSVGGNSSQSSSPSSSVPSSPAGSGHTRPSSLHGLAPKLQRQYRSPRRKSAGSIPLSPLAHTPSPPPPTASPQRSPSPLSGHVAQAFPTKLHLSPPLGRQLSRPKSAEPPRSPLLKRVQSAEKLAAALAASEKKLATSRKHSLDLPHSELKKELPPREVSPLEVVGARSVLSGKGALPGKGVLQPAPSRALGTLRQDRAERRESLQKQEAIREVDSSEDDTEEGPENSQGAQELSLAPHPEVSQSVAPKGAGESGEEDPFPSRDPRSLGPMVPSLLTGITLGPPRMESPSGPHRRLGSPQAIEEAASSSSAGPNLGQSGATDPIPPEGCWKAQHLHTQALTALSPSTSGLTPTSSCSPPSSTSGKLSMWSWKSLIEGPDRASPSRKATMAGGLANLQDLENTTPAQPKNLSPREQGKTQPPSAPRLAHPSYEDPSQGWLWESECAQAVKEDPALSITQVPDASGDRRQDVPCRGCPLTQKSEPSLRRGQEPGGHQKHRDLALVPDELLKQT
T4 sequence (Q9NR12 whole entry, the tested form may be a part): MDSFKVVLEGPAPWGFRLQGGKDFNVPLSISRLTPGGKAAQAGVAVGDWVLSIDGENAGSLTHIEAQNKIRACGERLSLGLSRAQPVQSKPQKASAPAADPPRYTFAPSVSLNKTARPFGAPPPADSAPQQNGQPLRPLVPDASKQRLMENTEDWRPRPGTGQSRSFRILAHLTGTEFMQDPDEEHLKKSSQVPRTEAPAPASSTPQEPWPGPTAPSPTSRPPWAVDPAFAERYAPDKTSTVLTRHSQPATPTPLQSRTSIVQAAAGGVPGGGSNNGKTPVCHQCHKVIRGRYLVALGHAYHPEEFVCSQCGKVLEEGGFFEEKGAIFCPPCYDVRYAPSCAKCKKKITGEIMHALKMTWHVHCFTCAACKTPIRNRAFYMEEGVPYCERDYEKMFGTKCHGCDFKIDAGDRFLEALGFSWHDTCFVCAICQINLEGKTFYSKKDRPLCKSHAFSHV

For the sequence “RNEIQSLV [CD95 8-mer, unlabeled peptide of the C-terminal 8 amino acids of CD95]”, in the assay with TIP-1 (GST-TIP-1) (unlabeled 8 amino acid CD95 competitor, 1 μM labeled Tax 20-mer), the “concentration of unlabeled competitor it takes to compete for binding of Tax to TIP-1 (FIG. 2C)” value fell in the range of 100 to 500 µM. For the same sequence, the “excess needed to interfere with the binding of Tax to TIP-1” value in the assay with TIP-1 (GST-TIP-1) (unlabeled CD95 8-mer versus labeled Tax) is ~500 fold. Besides, the “% binding” value with DLG-1 (biotinylated 20-mer CD46 20 uM) is 110%; with DLG-1 (biotinylated 20-mer CD95 10 uM) it was 70%; with DLG-1 (setting [11]), 73%; in the assay with DLG-1 (setting [12]), 84%; with PSD-95 (biotinylated 20-mer CD46 20 uM) it was 100%; with PSD-95 (biotinylated 20-mer CD95 10 uM) it was 75%. In addition, the “% binding” value was 92% with PSD-95 (setting [11]) and 87% with PSD-95 (setting [12]). The “reduction of binding of CLASP-2 and CD95 labeled ligand” value with DLG-1 (2.5 to 5-fold excess) is “approximately 30%”.
“EVIGYIEKPGVETLEDSVF (Biotin-EVIGYIEKPGVETLEDSVF) [CDW125 (modified)]”: the Classification in [1] and in assay [2] was 1 (A450 nm 0-1) each time.
On to “NGGFAVDKSDTISFTQTSQF [glutamate transporter 3]”, for which the Classification in assay [3] (PDZ BAI-1, PDZ Domain 4) is 1 (A450 nm 0-1); in assay [4], 1 (A450 nm 0-1); in [5] (PDZ Mint 1, PDZ Domain 1, 2), 1 (A450 nm 0-1); in assay [5] (PDZ Mint 1, PDZ Domain 2), 1 (A450 nm 0-1); in assay [6], 1 (A450 nm 0-1); in assay [7], 1 (A450 nm 0-1). The Classification in assay [8] (PDZ KIAA807) is recorded as 1 (A450 nm 0-1); in [8] (PDZ KIAA0807(S), PDZ Domain 1), 1 (A450 nm 0-1); in assay [2] it was 1 (A450 nm 0-1).
For the sequence “YSATYSELEDPGEMSPPIDL (Biotin-YSATYSELEDPGEMSPPIDL) [FceRlb]”, the Classification was 2 (A450 nm 1-2) in [3] (PDZ LIM Protein, PDZ Domain 1); 2 (A450 nm 1-2) in assay [1]; 2 (A450 nm 1-2) in assay [9]; 1 (A450 nm 0-1) in [10]; 1 (A450 nm 0-1) in [2].
